Common to all, as to assay: FRET or BRET
Data set [1] deals with the molecule itself.
Data set [2] deals with the molecule itself. The source holds these as a separate data set.
Data set [3] deals with the molecule itself. This is another data set of the same source.

Like-named read-outs stand apart in the source and are kept apart here.

B1: Alexa-labelled apoC-II S61C (Alexa-488 apoC-II; Alexa-594 apoC-II) (natural protein, human, UniProt P02655 23-101, looked up)
chain: TQQPQQDEMPSPTFLTQVKESLSSYWESAKTAAQNLYEKTYLPAVDEKLRDLYSKSTAAMCTYTGIFTDQVLSVLKGEE
modifications: conjugated with Alexa dyes (Alexa 488 C5 maleimide or Alexa 594 C5 maleimide)
As for B1, the values for the off-rate (koff) in data set [1], in data set [2] and in data set [3] were 0.0125 s⁻¹, 0.00639 s⁻¹ and 0.161 s⁻¹, respectively.

The record behind these values is publication PMC2887044 (Journal of molecular biology, 2010).
